Laboratory results reported in publication doi:10.1101/2020.08.13.249722.

Target: …-Toyopearl (PTCH peptide, positive control)
Assay: equilibrium adsorption on peptide resin

percent of the incubated protein bound: > 73%
Substance: tandem WW domain of Yes-Associated Protein 1 (WW-YAP), soluble recombinant human protein (domain or fragment)
